Data set [1] concerns the target YBX1 (Homo sapiens, UniProt P67809 1-324). Nature of the data set: EMSA; EMSA: 1 fmol labeled RNA, 0.1-4 pmol protein, 5% native acrylamide gel; buffer, salt, pH, temperature not given (refers to Marnef et al. 2016). As to conditions: protein: recombinant, tags: Strep-tag (N-terminal, in 5' primer), Ni-NTA purified, tRNA fold. (Mobility shift assays separate free from complexed probe on a gel.)

Data set [2] concerns the target YBX3 (Homo sapiens, UniProt P16989 1-372). The description is as above. As to conditions: protein: recombinant, tags: Strep-tag (N-terminal, in 5' primer), Ni-NTA purified, tRNA fold.

Sequence of YBX1 (P67809 whole entry): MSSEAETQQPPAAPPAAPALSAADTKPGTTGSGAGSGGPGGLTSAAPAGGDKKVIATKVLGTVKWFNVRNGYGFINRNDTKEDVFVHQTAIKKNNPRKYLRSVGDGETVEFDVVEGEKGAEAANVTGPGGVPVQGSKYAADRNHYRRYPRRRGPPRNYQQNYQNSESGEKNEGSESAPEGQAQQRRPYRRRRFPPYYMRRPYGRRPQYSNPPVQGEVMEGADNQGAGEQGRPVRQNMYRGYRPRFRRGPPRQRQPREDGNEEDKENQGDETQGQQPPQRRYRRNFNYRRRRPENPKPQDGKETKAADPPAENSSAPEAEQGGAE
Sequence of YBX3 (P16989 whole entry): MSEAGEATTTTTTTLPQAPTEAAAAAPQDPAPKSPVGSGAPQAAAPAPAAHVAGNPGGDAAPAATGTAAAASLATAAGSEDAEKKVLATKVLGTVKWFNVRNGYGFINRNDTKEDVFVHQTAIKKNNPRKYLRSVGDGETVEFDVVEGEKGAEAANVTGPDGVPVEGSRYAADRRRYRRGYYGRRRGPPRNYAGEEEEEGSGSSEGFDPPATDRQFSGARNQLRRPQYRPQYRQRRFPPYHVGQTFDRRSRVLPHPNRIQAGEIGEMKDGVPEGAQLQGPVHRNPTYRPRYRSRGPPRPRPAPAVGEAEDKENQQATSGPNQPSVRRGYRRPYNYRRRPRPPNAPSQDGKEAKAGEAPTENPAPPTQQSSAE

B1: mt tRNAGly (structured_RNA)
RNA: ACUCUUUUAGUAUAAAUAGUACCGUUAACUUCCAAUUAACUAGUUUUGACAACAUUCAAAAAAGAGUACCA
Regarding B1, the binding result in data set [1] and in data set [2] was “binds” each time.

B2: mt tRNALeu(UUR) (structured_RNA)
RNA: GUUAAGAUGGCAGAGCCCGGUAAUCGCAUAAAACUUAAAACUUUACAGUCAGAGGUUCAAUUCCUCUUCUUAACACCA
As for B2, the binding result in data set [1] (label: internal 32P-CTP) and in data set [2] (label: internal 32P-CTP) was “binds” in each case.

Source of the values: PMC6239184, “Dynamic association of human mRNP proteins with mitochondrial tRNAs in the cytosol”.
